The supplement of paper PMC10065799, “High-throughput profiling of sequence recognition by tyrosine kinases and SH2 domains using bacterial peptide display” (eLife, 2023)

Legend:
[1] = tested on: AncSZ; assay: phosphorylation enrichment, bacterial display (enrichment ratio); higher = better substrate or ligand; peptides without Tyr show the background
[2] = biological target: EPHB1 (UniProt P54762); assay: as above
[3] = biological target: EPHB2 (UniProt P29323); assay: as above
[4] = biological target: FGFR1 (UniProt P11362); assay: as above
[5] = biological target: FGFR3 (UniProt P22607); assay: as above
[6] = tested on: Fer (mouse); assay: as above
[7] = biological target: Fes (UniProt P07332); assay: as above
[8] = biological target: Fyn (UniProt P06241); assay: as above
[9] = biological target: Hck (UniProt P08631); assay: as above
[10] = biological target: Jak2 (UniProt O60674); assay: as above
[11] = biological target: MERTK (UniProt Q12866); assay: as above
[12] = tested on: c-Abl (mouse); assay: as above
[13] = tested on: c-Src; assay: as above
[14] = biological target: Grb2 SH2 (UniProt P62993); assay: SH2 binding enrichment of the phosphorylated peptide, bacterial display (enrichment ratio); higher = better substrate or ligand; peptides without Tyr show the background
[15] = biological target: SHP2-C SH2; assay: as above
[16] = biological target: c-Src SH2; assay: as above
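For SH2 binding enrichment of the phosphorylated peptide, bacterial display in this document: peptide library displayed on the E. coli surface as eCPX fusions, selected cells deep-sequenced, score is each peptide's frequency after selection divided by its frequency in the input.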
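For phosphorylation enrichment, bacterial display in this document: 11-residue human phosphosite peptides and single-mutation variants displayed on the E. coli surface, counted by deep sequencing, each peptide's frequency after selection divided by its frequency in the unselected input library; frequency after pTyr selection over input frequency; kinase dosed for 20-30% of maximal phosphorylation in three min.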

Sequence of FGFR1 (P11362 whole entry, looked up): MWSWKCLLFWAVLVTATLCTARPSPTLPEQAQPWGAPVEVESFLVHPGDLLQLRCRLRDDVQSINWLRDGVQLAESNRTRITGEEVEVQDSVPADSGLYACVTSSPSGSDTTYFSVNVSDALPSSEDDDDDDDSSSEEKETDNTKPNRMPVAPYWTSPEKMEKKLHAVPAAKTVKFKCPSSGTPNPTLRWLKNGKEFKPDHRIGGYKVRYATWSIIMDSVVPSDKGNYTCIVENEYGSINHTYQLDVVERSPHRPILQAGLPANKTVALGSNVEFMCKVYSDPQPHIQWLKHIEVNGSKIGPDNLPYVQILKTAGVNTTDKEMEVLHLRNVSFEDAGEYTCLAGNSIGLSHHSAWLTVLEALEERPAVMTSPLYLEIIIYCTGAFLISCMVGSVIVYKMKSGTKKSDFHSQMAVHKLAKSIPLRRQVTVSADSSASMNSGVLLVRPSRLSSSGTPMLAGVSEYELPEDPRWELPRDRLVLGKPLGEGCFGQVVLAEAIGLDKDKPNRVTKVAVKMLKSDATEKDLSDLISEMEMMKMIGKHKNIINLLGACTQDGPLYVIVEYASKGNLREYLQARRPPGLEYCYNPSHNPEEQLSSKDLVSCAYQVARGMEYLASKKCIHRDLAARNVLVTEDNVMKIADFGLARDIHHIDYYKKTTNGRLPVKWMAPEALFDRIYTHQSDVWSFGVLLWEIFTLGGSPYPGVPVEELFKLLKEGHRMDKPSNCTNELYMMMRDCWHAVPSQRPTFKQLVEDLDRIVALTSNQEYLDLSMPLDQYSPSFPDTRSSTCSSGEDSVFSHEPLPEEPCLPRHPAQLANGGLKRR
Sequence of Hck (P08631 whole entry, looked up): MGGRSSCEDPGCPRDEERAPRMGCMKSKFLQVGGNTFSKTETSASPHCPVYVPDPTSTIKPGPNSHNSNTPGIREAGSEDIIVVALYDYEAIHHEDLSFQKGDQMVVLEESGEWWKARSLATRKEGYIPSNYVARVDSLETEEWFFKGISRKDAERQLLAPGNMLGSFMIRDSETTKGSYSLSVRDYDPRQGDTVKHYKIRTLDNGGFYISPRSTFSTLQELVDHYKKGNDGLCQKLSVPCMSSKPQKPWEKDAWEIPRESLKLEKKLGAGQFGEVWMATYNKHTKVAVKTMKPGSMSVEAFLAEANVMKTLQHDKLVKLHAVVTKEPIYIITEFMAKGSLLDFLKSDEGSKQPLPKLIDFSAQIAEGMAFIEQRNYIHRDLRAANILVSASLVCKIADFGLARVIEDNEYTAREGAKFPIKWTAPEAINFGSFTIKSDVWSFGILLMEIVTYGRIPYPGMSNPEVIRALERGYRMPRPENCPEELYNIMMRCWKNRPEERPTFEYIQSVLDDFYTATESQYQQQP
Sequence of MERTK (Q12866 whole entry, looked up): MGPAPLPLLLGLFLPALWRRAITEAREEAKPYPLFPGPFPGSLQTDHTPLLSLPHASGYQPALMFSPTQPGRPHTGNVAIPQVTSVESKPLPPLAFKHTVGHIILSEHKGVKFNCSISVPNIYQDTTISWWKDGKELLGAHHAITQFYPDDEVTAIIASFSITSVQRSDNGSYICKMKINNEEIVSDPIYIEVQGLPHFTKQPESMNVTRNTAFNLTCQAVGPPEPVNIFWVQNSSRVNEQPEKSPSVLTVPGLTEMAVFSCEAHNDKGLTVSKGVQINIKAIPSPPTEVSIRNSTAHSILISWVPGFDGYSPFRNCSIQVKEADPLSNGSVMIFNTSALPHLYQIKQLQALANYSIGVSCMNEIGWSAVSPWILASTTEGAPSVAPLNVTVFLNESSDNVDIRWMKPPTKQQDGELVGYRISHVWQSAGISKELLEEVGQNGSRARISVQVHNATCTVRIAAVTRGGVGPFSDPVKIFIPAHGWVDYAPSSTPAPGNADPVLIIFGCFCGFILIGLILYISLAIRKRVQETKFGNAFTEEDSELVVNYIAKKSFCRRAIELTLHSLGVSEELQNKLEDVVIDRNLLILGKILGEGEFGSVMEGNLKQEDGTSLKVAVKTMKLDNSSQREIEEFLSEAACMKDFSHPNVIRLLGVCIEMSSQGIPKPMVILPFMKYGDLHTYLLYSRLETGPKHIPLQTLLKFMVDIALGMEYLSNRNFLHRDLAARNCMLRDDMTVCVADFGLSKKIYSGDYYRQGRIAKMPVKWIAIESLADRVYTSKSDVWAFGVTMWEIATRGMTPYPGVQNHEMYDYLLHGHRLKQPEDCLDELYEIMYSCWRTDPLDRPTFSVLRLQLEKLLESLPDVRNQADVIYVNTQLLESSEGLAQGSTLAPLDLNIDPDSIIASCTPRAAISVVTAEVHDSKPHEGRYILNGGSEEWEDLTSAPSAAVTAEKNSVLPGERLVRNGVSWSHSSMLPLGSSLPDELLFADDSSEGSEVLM
Sequence of FGFR3 (P22607 whole entry, looked up): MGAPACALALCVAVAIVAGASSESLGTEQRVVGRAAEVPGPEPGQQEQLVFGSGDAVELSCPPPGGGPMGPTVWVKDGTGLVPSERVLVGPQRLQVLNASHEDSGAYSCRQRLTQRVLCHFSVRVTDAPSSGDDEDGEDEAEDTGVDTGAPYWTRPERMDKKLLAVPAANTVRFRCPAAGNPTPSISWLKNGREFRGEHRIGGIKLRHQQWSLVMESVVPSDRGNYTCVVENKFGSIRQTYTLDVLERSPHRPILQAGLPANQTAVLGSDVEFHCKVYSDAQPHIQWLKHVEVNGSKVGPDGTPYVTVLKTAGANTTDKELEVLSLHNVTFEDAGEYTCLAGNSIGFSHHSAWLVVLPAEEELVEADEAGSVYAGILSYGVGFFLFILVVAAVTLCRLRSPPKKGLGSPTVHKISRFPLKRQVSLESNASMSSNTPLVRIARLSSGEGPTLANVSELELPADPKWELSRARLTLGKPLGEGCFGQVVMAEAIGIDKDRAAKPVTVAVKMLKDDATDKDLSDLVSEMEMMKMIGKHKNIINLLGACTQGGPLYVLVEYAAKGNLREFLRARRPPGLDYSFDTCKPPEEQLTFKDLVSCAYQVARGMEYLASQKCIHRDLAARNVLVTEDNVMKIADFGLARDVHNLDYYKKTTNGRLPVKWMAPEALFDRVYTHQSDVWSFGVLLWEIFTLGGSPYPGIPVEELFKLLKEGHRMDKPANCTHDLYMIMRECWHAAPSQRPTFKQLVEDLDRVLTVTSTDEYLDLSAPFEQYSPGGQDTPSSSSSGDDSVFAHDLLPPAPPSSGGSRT
Sequence of Jak2 (O60674 whole entry, looked up): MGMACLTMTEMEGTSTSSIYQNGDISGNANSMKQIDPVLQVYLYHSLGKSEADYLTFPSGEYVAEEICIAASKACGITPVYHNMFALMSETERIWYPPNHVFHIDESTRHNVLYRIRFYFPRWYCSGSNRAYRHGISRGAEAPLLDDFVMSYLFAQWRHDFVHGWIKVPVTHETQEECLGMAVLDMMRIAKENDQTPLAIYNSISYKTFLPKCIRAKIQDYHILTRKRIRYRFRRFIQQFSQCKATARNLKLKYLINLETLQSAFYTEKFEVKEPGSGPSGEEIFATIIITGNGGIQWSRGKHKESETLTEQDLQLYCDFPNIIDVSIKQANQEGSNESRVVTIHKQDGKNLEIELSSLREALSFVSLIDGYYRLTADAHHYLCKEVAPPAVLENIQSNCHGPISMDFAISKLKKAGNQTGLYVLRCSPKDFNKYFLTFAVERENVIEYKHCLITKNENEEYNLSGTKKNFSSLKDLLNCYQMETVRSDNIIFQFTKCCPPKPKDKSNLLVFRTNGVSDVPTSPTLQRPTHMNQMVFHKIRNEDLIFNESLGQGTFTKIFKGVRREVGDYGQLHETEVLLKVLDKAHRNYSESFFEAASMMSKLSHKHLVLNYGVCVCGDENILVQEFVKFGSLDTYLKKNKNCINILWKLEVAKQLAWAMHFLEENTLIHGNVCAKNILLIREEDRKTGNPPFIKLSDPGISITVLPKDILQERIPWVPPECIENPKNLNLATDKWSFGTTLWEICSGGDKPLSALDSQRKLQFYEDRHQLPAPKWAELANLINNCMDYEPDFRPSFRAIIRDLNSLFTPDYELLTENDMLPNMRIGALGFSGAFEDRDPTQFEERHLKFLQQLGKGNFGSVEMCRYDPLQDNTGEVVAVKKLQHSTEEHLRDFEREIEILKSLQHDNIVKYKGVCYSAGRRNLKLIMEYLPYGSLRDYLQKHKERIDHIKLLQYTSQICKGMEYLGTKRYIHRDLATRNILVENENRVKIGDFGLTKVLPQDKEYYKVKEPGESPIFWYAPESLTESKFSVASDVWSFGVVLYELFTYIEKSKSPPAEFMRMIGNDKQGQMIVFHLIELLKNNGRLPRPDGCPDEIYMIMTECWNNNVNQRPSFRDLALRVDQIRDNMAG
Sequence of Fyn (P06241 whole entry, looked up): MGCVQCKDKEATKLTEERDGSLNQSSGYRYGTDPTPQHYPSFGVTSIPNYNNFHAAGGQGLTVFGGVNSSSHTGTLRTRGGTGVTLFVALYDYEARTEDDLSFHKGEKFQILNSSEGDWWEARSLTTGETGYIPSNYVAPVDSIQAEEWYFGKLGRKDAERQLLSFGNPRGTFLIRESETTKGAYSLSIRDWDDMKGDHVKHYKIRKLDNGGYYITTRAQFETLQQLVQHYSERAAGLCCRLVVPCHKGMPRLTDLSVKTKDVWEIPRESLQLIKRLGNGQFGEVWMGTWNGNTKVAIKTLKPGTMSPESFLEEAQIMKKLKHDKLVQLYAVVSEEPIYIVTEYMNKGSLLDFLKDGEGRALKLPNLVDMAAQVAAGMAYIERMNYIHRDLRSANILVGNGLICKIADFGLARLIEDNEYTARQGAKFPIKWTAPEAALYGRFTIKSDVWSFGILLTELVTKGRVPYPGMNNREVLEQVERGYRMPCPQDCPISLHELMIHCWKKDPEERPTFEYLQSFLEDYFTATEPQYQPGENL
Sequence of Grb2 SH2 (P62993 whole entry, looked up): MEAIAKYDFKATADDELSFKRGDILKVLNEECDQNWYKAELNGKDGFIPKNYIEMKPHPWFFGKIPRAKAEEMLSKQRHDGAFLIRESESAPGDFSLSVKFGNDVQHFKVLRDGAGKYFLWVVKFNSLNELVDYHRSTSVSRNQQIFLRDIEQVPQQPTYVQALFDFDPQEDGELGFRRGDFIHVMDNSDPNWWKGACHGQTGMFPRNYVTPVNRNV

| Sequence | phosphorylation enrichment [1] | phosphorylation enrichment [2] | phosphorylation enrichment [3] | phosphorylation enrichment [4] | phosphorylation enrichment [5] | phosphorylation enrichment [6] | phosphorylation enrichment [7] | phosphorylation enrichment [8] | phosphorylation enrichment [9] | phosphorylation enrichment [10] | phosphorylation enrichment [11] | phosphorylation enrichment [12] | phosphorylation enrichment [13] | SH2 binding enrichment [14] | SH2 binding enrichment [15] | SH2 binding enrichment [16] |
| --- | --- | --- | --- | --- | --- | --- | --- | --- | --- | --- | --- | --- | --- | --- | --- | --- |
| GSERRYSREGG [PTPRN2_Y139] | 0.703 | 0.5 | 0.413 | 0.4 | 0.412 | 0.386 | 0.468 | 0.479 | 0.356 | 0.45 | 0.415 | 0.46 | 0.463 | 0.678 | 0.646 | 0.475 |
| GSETPYMDRTP [ESS2_Y335_V336M] | 0.662 | 0.571 | 0.413 | 0.431 | 0.413 | 0.363 | 0.715 | 0.344 | 0.365 | 0.499 | 0.365 | 0.424 | 0.454 | 1.05 | 0.788 | 0.49 |
| GSSEGYLHMVH [NIPBL_Y247_D246G] | 0.616 | 0.333 | 0.427 | 0.388 | 0.474 | 0.424 | 0.679 | 0.368 | 0.396 | 0.617 | 0.419 | 0.491 | 0.403 | 0.794 | 0.9 | 0.477 |
| GTAPSYGNPSS [CD19_Y378] | 0.517 | 0.407 | 0.362 | 0.38 | 0.494 | 0.299 | 0.56 | 0.358 | 0.336 | 0.594 | 0.432 | 0.589 | 0.496 | 0.907 | 0.556 | 0.45 |
| GTGTAYLCGVK [ALPL_Y117_A114G] | 0.694 | 0.551 | 0.412 | 0.446 | 0.489 | 0.511 | 0.754 | 0.435 | 0.395 | 0.675 | 0.379 | 0.685 | 0.348 | 0.902 | 0.679 | 0.543 |
| GYIISYREEEQ | 1.79 | 0.48 | 0.599 | 0.532 | 0.586 | 0.596 | 2.14 | 0.546 | 0.473 | 1.53 | 0.539 | 0.909 | 0.516 | 0.857 | 1.04 | 0.527 |
| HDRGNYVQLNM [RECQL4_Y353_R355Q] | 0.744 | 8.72 | 3.46 | 1.99 | 1.35 | 0.674 | 1.1 | 0.493 | 0.508 | 0.55 | 0.686 | 0.552 | 0.442 | 0.986 | 1.18 | 1.95 |
| HELYVYKSDEN [DOCK3_Y548_C550S] | 1.7 | 1.28 | 0.912 | 0.684 | 1.32 | 0.879 | 2.14 | 0.849 | 0.835 | 1.75 | 0.487 | 1.19 | 0.917 | 1.04 | 0.772 | 0.584 |
| HFEFKYVINAI [MAOA_Y268_C266F_YF] | 1.66 | 0.686 | 0.89 | 0.391 | 0.854 | 0.829 | 2.11 | 0.441 | 0.668 | 1.81 | 0.678 | 1.26 | 0.576 | 0.814 | 0.772 | 0.561 |
| HFGNNYRDVLQ [MACC1_Y803_YF] | 0.851 | 0.648 | 0.627 | 0.711 | 0.68 | 0.558 | 1.72 | 0.614 | 0.594 | 1.06 | 0.64 | 0.848 | 0.65 | 0.909 | 2.13 | 0.472 |
| HGAKVYIDPFT [EPHB4_Y590_T587A] | 0.986 | 1.08 | 0.975 | 1.46 | 0.912 | 0.715 | 1.04 | 0.792 | 0.792 | 0.761 | 0.535 | 0.831 | 0.713 | 0.712 | 0.668 | 0.592 |
| HGTKVYIDPFT [EPHB4_Y590] | 0.602 | 0.788 | 0.66 | 0.711 | 0.688 | 0.426 | 0.705 | 0.601 | 0.628 | 0.815 | 1.03 | 0.725 | 0.49 | 1.21 | 1.62 | 0.788 |
| HHTDECEFDEL [TGM1_Y134_Y134C_YF] | 1.07 | 0.423 | 0.426 | 0.605 | 0.545 | 0.463 | 1.1 | 0.488 | 0.586 | 1.05 | 0.471 | 0.858 | 0.727 | 1.12 | 0.628 | 0.585 |
| HKLSYCEYDFE [BTK_Y40_Y40C] | 1.78 | 0.857 | 1.14 | 0.762 | 1.34 | 0.687 | 1.76 | 1.68 | 0.746 | 1.29 | 0.535 | 0.871 | 2.46 | 1.3 | 0.68 | 0.914 |
| HLELNYKEDEY [MME_Y502_Y497H] | 1.32 | 0.562 | 0.535 | 0.487 | 0.611 | 0.344 | 0.994 | 0.514 | 0.382 | 1.06 | 0.396 | 0.62 | 0.418 | 0.692 | 0.535 | 0.483 |
| HLQQSNLPRGT [TEX45_Y396_Y396N] | 0.639 | 0.447 | 0.451 | 0.491 | 0.644 | 0.279 | 0.757 | 0.445 | 0.534 | 0.689 | 0.467 | 0.703 | 0.42 | 0.837 | 0.583 | 0.748 |
| HNLDYYKKTTN [FGFR3_Y648] | 0.829 | 0.696 | 0.59 | 0.694 | 0.648 | 0.539 | 1.2 | 0.653 | 0.58 | 0.632 | 0.423 | 0.817 | 0.373 | 0.732 | 0.554 | 0.591 |

| Sequence | phosphorylation enrichment [1] | phosphorylation enrichment [2] | phosphorylation enrichment [3] | phosphorylation enrichment [4] | phosphorylation enrichment [5] | phosphorylation enrichment [6] | phosphorylation enrichment [7] | phosphorylation enrichment [8] | phosphorylation enrichment [9] | phosphorylation enrichment [10] | phosphorylation enrichment [11] | phosphorylation enrichment [12] | phosphorylation enrichment [13] | SH2 binding enrichment [14] | SH2 binding enrichment [15] | SH2 binding enrichment [16] |
| --- | --- | --- | --- | --- | --- | --- | --- | --- | --- | --- | --- | --- | --- | --- | --- | --- |
| HNLFSYPTKFE [MYO3A_Y1396_H1400Y_YF] | 0.869 | 0.474 | 0.507 | 0.671 | 0.752 | 0.562 | 1.29 | 0.565 | 0.684 | 1.44 | 0.569 | 0.881 | 0.703 | 0.706 | 1.56 | 0.503 |
| HNLYSYPTKYE [MYO3A_Y1396_H1400Y] | 2.65 | 10.6 | 16.7 | 0.699 | 0.683 | 17 | 0.958 | 5.43 | 8.88 | 0.606 | 14.8 | 2.34 | 2.62 | 0.757 | 0.657 | 1.31 |
| HNMPIYEGFAL [ACTA1_Y168_V165M_YF] | 1.44 | 24.3 | 32.9 | 0.704 | 0.786 | 26.7 | 5.34 | 21.5 | 15.6 | 0.859 | 14.7 | 29.2 | 13.2 | 0.607 | 0.847 | 0.431 |
| HNQDGYSYLSR [LDLR_Y845_P848L] | 0.478 | 0.527 | 0.889 | 0.879 | 0.658 | 0.522 | 0.681 | 0.624 | 0.793 | 0.679 | 0.719 | 0.551 | 0.554 | 0.698 | 2.08 | 11.7 |
| HPWPQYTTRAP [FNDC1_Y1281] | 0.628 | 0.316 | 0.594 | 0.421 | 0.54 | 0.454 | 0.603 | 0.554 | 0.572 | 0.846 | 0.546 | 0.697 | 0.561 | 1.12 | 0.99 | 0.594 |
| HRERPYGGGGG [FUS_Y526_R521H] | 0.487 | 0.483 | 0.265 | 0.553 | 0.449 | 0.407 | 0.714 | 0.454 | 0.439 | 0.386 | 0.557 | 0.556 | 0.523 | 1.17 | 1.05 | 1.18 |
| HSKGIYFVQLE [MGAT4B_Y262_Q257H_YF] | 1.87 | 0.853 | 0.911 | 1.38 | 1.75 | 0.711 | 2.53 | 1.03 | 1.12 | 2.27 | 3.31 | 1.31 | 1.65 | 1.53 | 1.45 | 1.08 |
| HSLLQYGGSAN [ANK1_Y624_R619H] | 0.579 | 0.421 | 0.583 | 0.316 | 0.531 | 0.447 | 0.481 | 0.427 | 0.505 | 0.394 | 0.386 | 0.472 | 0.357 | 0.862 | 0.661 | 0.367 |
| HSSPVYVGRVV [TGM2_Y219_R214H] | 1.85 | 2.08 | 1.47 | 1.37 | 1.24 | 1.63 | 1.97 | 3 | 6.86 | 1 | 1.5 | 1.17 | 1.57 | 0.806 | 1.22 | 0.539 |
| HVIKFYGACSQ [RET_Y791_L790F] | 1.5 | 0.956 | 0.851 | 0.871 | 1.08 | 0.576 | 1.75 | 0.759 | 0.779 | 1.3 | 0.545 | 1.4 | 0.564 | 0.833 | 0.773 | 0.546 |
| HVSISYDIPPT [GAB1_Y307] | 1.33 | 0.522 | 1.18 | 0.677 | 1.01 | 0.732 | 1.24 | 0.645 | 0.644 | 0.826 | 6.11 | 0.735 | 0.478 | 0.688 | 0.548 | 0.702 |
| HYEFKYVINAI [MAOA_Y268_C266F] | 1.75 | 1.05 | 0.782 | 0.471 | 0.964 | 0.74 | 1.72 | 0.481 | 0.489 | 1.55 | 0.572 | 1.28 | 0.536 | 0.868 | 0.69 | 0.582 |
| HYPDVYAWEQL [ALX3_Y181_R183W] | 1.14 | 0.913 | 0.865 | 1.19 | 1.16 | 13.2 | 1.31 | 8.69 | 4.12 | 0.847 | 3.27 | 0.404 | 5.25 | 0.716 | 0.928 | 0.723 |
| IDFARYWHGDD [MMP11_Y162] | 0.81 | 0.676 | 0.504 | 0.477 | 0.567 | 0.799 | 0.857 | 0.405 | 0.463 | 0.639 | 0.536 | 0.592 | 0.387 | 0.843 | 0.878 | 0.674 |
| IEENGYNTFAS [FGF10_Y161_YF] | 0.952 | 0.478 | 0.526 | 0.602 | 0.614 | 0.498 | 1.07 | 0.451 | 0.477 | 0.961 | 0.506 | 0.846 | 0.628 | 0.749 | 0.66 | 1.45 |
| IHADICRWFNI [MARS1_Y344_Y344C] | 0.962 | 0.639 | 0.546 | 0.413 | 0.675 | 0.464 | 1.18 | 0.395 | 0.497 | 0.809 | 0.356 | 0.697 | 0.334 | 0.779 | 0.633 | 0.526 |
